From patent US20040014194

Biological target: T1, Biotin-KSEVNL*DAEFRK-Fluorescein (SEQ ID NO: 3), peptide substrate derived from the sequence of "Swedish" amyloid protein peptide
T1 chain: KSEVNLDAEFRK

B1: ProBACE (SEQ ID NO: 2), Sf9-derived soluble pro-β-secretase (protein)
chain: TQHGIRLPLRSGLGGAPLGLRLPRETDEEPEEPGRRGSFVEMVDNLRGKSGQGYYVEMTVGSPPQTLNILVDTGSSNFAVGAAPHPFLHRYYQRQLSSTYRDLRKGVYVPYTQGKWEGELGTDLVSIPHGPNVTVRANIAAITESDKFFINGSNWEGILGLAYAEIARPDDSLEPFFDSLVKQTHVPNLFSLQLCGAGFPLNQSEVLASVGGSMIIGGIDHSLYTGSLWYTPIRREWYYEVIIVRVEINGQDLKMDCKEYNYDKSIVDSGTTNLRLPKKVFEAAVKSIKAASSTEKFPDGFWLGEQLVCWQAGTTPWNIFPVISLYLMGEVTNQSFRITILPQQYLRPVEDVATSQDDCYKFAISQSSTGTVMGAVIMEGFYVVFDRARKRIGFAVSACHVHDEFRTAAVEGPFVTLDMEDCGYNIPQTDESTLE
With B1 the “specificity constant (kcat/Km)” value was 1500 ± 100 M⁻¹ s⁻¹.

B2: mature BACE (SEQ ID NO: 1), Sf9-derived glycosylated human β-secretase (protein)
chain: ETDEEPEEPGRRGSFVEMVDNLRGKSGQGYYVEMTVGSPPQTLNILVDTGSSNFAVGAAPHPFLHRYYQRQLSSTYRDLRKGVYVPYTQGKWEGELGTDLVSIPHGPNVTVRANIAAITESDKFFINGSNWEGILGLAYAEIARPDDSLEPFFDSLVKQTHVPNLFSLQLCGAGFPLNQSEVLASVGGSMIIGGIDHSLYTGSLWYTPIRREWYYEVIIVRVEINGQDLKMDCKEYNYDKSIVDSGTTNLRLPKKVFEAAVKSIKAASSTEKFPDGFWLGEQLVCWQAGTTPWNIFPVISLYLMGEVTNQSFRITILPQQYLRPVEDVATSQDDCYKFAISQSSTGTVMGAVIMEGFYVVFDRARKRIGFAVSACHVHDEFRTAAVEGPFVTLDMEDCGYNIPQTDESTLE
With B2 the “specificity constant (kcat/Km)” value was 1500 ± 100 M⁻¹ s⁻¹.
